Some targets named below: HLA-A*02:06; HLA-A*02:03; HLA-A*02:02; HLA-A*68:02; HLA-A*02:01.
Common to all, as to assay: IEDB peptide-MHC binding, cellular MHC/competitive/fluorescence; ≥ and ≤ were set here for values at or beyond the usual limits of such assays
The mark [1] stands for this setting: source organism: Vaccinia virus WR.
The mark [2] stands for this setting: source organism: Influenza A virus.
Setting [3] is: source organism: Mammarenavirus choriomeningitidis.

Some results are limits rather than exact numbers.

Regarding TTENAAYQVL, the half-maximal inhibitory concentration (IC50) (commonly the concentration needed to halve the response being measured) with HLA-A*02:06 (setting [1]) is at least 70 µM; with HLA-A*02:03 (setting [1]), at least 70 µM; in the test with HLA-A*02:02 (setting [1]), 29.7 µM; with HLA-A*68:02 (setting [1]) it was 18.2 µM; in the test with HLA-A*02:01 (setting [1]) it was 8.11 µM.
CTEETKRNIA: the IC50 with HLA-A*02:06 (setting [1]) was at least 70 µM; with HLA-A*02:03 (setting [1]) it was 50.1 µM; in the test with HLA-A*02:02 (setting [1]), at least 70 µM; in the test with HLA-A*68:02 (setting [1]) it was 15.2 µM; in the test with HLA-A*02:01 (setting [1]), at least 70 µM.
For the sequence AARLKRSAT, the concentration for half-maximal inhibition (IC50) with HLA-A*02:06 (setting [1]) is 63.8 µM; with HLA-A*02:03 (setting [1]), 10.5 µM; with HLA-A*02:02 (setting [1]) it was 12.5 µM; with HLA-A*68:02 (setting [1]), at least 70 µM; in the test with HLA-A*02:01 (setting [1]), at least 70 µM.
Take ATAILRKA: the 50% inhibitory concentration (IC50) was at least 70 µM in the test with HLA-A*02:06 (setting [2]); 42.3 µM in the test with HLA-A*02:03 (setting [2]); 61.8 µM in the test with HLA-A*02:02 (setting [2]); at least 70 µM with HLA-A*68:02 (setting [2]); 52.9 µM in the test with HLA-A*02:01 (setting [2]).
Take DVEKRILNT: the half-maximal inhibitory concentration (IC50) was at least 70 µM with HLA-A*02:06 (setting [1]); 6.72 µM in the test with HLA-A*02:03 (setting [1]); 5.82 µM with HLA-A*02:02 (setting [1]); at least 70 µM in the test with HLA-A*68:02 (setting [1]); 9.33 µM with HLA-A*02:01 (setting [1]).
Turning to EMQLKIDKLT, the half-maximal inhibitory concentration (IC50) with HLA-A*02:06 (setting [1]) was at least 70 µM; with HLA-A*02:03 (setting [1]) it was 6.82 µM; in the test with HLA-A*02:02 (setting [1]), 9.66 µM; in the test with HLA-A*68:02 (setting [1]), 43.1 µM; with HLA-A*02:01 (setting [1]), 55.9 µM.
For DLAIKQYGDI, the IC50 in the test with HLA-A*02:06 (setting [1]) is 46.8 µM; with HLA-A*02:03 (setting [1]), 33.3 µM; with HLA-A*02:02 (setting [1]), 17.9 µM; with HLA-A*68:02 (setting [1]), 7.72 µM; with HLA-A*02:01 (setting [1]) it was at least 70 µM.
The corresponding values for YVPSAEDNYL are at least 70 µM, at least 70 µM, at least 70 µM, at least 70 µM and at least 70 µM.
For ATRRMIQL, the IC50 in the test with HLA-A*02:06 (setting [2]), with HLA-A*02:03 (setting [2]), with HLA-A*02:02 (setting [2]), with HLA-A*68:02 (setting [2]) and in the test with HLA-A*02:01 (setting [2]) was at least 70 µM each time.
As for IILFQNNDI, the IC50 with HLA-A*02:06 (setting [1]) was determined as 12.1 µM; in the test with HLA-A*02:03 (setting [1]), 52.3 µM; with HLA-A*02:02 (setting [1]), 11.3 µM; with HLA-A*68:02 (setting [1]), 23.8 µM; with HLA-A*02:01 (setting [1]), 13.5 µM.
AATKRYPGVM: the IC50 is 46.8 µM with HLA-A*02:06 (setting [1]); 47.9 µM in the test with HLA-A*02:03 (setting [1]); 20.1 µM with HLA-A*02:02 (setting [1]); at least 70 µM with HLA-A*68:02 (setting [1]); 67.2 µM with HLA-A*02:01 (setting [1]).
The like results for ATQFNFNGHT were, in that order, 26.4 µM, 11.5 µM, 28.6 µM, 23.3 µM and 38.6 µM.
The like results for LVSKHWELT were, in that order, at least 70 µM, 14.9 µM, 12.2 µM, at least 70 µM and at least 70 µM.
The like results for PTEMVDVSM were, in that order, 40.2 µM, 41.3 µM, 10.6 µM, 52.2 µM and 47.4 µM.
In the case of RLEVIGLTT, the IC50 in the test with HLA-A*02:06 (setting [1]) was at least 50 µM; with HLA-A*02:03 (setting [1]), 13.9 µM; with HLA-A*02:02 (setting [1]), 20 µM; in the test with HLA-A*68:02 (setting [1]), 13.1 µM; in the test with HLA-A*02:01 (setting [1]) it was 28.8 µM.
The corresponding values for DILQMREIIT are 17.7 µM, 56.2 µM, 45.5 µM, 20.3 µM and 31.1 µM.
Regarding GTMPSLTMAC, the half-inhibitory concentration (IC50) in the test with HLA-A*02:06 (setting [3]) was 12.1 µM; with HLA-A*02:03 (setting [3]), 16.4 µM; with HLA-A*02:02 (setting [3]), 25.3 µM; with HLA-A*68:02 (setting [3]) it was at least 70 µM; with HLA-A*02:01 (setting [3]) it was 34.7 µM.
As to RAEIIRMMEGA, the IC50 is at least 70 µM with HLA-A*02:06 (setting [2]); 10 µM with HLA-A*02:03 (setting [2]); 11.8 µM with HLA-A*02:02 (setting [2]); 54.7 µM in the test with HLA-A*68:02 (setting [2]); at least 70 µM in the test with HLA-A*02:01 (setting [2]).
In the case of AIKSNNHLT, the half-inhibitory concentration (IC50) in the test with HLA-A*02:06 (setting [1]) was at least 70 µM; with HLA-A*02:03 (setting [1]), 28.6 µM; with HLA-A*02:02 (setting [1]), 50.7 µM; in the test with HLA-A*68:02 (setting [1]) it was 46.1 µM; with HLA-A*02:01 (setting [1]), 27.2 µM.
The like results for LIISTDQDT were, in that order, at least 70 µM, at least 70 µM, at least 70 µM, at least 70 µM and 30.1 µM.
The like results for LTPFEKEFT were, in that order, at least 70 µM, 20.9 µM, 16.8 µM, at least 70 µM and 44.5 µM.
In the case of DIDLLFNEKL, the IC50 was 25.7 µM with HLA-A*02:06 (setting [1]); 26.7 µM in the test with HLA-A*02:03 (setting [1]); 11.2 µM in the test with HLA-A*02:02 (setting [1]); 15.8 µM with HLA-A*68:02 (setting [1]); 5.79 µM with HLA-A*02:01 (setting [1]).
Take LLLVVQALR: the IC50 with HLA-A*02:06 (setting [2]) is 8.59 µM; in the test with HLA-A*02:03 (setting [2]), 34.6 µM; with HLA-A*02:02 (setting [2]), 10.7 µM; with HLA-A*68:02 (setting [2]) it was 60.4 µM; with HLA-A*02:01 (setting [2]) it was 10.2 µM.
Consider DLDKVYEIL, for which the half-maximal inhibitory concentration (IC50) is 53.6 µM with HLA-A*02:06 (setting [1]); 26.3 µM in the test with HLA-A*02:03 (setting [1]); 19.6 µM with HLA-A*02:02 (setting [1]); at least 70 µM with HLA-A*68:02 (setting [1]); 29.7 µM with HLA-A*02:01 (setting [1]).

(Values after the Immune Epitope Database (IEDB).)
